Biological target: Dispatched-yellow fluorescent protein (YFP) (D. melanogaster) (UniProt Q9VNJ5)
Assay: MST

Sequence of UniProt Q9VNJ5 (Q9VNJ5 whole entry): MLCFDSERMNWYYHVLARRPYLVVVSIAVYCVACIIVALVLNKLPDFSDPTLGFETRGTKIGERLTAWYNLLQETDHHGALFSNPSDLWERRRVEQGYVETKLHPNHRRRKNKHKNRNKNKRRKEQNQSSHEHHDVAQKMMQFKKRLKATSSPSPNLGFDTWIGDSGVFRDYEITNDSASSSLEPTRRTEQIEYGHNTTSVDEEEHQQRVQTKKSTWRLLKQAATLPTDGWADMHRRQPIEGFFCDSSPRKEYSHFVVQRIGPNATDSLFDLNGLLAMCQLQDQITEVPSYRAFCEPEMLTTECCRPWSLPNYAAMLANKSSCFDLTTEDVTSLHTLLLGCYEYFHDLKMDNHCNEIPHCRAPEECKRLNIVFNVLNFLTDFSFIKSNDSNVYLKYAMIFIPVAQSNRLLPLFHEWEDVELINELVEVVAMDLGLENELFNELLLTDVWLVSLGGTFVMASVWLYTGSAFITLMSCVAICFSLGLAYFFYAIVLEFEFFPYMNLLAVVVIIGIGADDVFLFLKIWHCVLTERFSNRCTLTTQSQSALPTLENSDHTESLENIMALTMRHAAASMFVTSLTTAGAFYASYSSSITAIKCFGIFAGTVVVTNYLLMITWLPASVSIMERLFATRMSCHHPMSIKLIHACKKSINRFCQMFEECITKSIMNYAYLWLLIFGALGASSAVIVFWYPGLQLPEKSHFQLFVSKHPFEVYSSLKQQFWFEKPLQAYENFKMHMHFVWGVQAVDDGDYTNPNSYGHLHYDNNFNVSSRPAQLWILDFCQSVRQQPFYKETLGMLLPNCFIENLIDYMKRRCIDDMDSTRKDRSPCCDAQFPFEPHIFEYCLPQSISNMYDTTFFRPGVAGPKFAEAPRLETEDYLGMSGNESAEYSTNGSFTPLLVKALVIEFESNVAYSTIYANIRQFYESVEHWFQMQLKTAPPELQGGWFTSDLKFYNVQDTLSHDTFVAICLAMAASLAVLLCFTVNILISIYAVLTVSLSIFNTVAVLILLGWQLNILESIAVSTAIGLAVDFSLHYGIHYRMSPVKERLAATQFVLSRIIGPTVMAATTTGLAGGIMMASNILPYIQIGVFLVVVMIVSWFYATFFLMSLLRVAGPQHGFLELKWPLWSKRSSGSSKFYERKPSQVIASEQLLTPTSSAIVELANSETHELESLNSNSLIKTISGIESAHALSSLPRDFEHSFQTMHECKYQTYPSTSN

modified D. melanogaster hedgehog N-terminal fragment HhN_(C85II) (from UniProt Q02936 85-257) (ligand)
Kd: 6.2 µM

— paper PMC7159904
